Measurements: article PMC7610778 (Science (New York, N.Y.), 2020)
Blank lines part the entries; values can stand above or below the binder they belong to.

T1: Atg19-3D (S390D, S391D, S396D) (S. cerevisiae, UniProt P35193 1-415, S390D | S391D | S396D)
T1 sequence: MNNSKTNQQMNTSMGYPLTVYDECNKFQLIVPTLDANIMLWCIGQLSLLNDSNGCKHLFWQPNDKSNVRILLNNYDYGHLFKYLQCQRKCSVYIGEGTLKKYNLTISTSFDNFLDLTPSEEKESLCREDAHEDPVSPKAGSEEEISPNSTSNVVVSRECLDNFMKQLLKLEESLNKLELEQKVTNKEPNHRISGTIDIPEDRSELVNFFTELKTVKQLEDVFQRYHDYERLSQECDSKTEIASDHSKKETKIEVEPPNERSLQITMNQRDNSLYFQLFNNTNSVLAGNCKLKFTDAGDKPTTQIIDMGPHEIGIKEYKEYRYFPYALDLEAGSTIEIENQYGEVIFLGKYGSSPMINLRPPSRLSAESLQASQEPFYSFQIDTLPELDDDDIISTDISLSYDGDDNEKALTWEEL

B1: Atg21 (natural protein)
chain: MKVLQFNQDATCCVVAASSHQISIFNCDPFGKCFEIDTKNSKKKTSNNNGSASNSESRNNEESILITNGSRDRTDAEEEEDNEDNALVTGNILKEGEFVIEMLFSTSLIAIADRGQGLNKGKKLKIVNTKRKCTICEIVFPHEIVDVVMNRKRMCVLLESDQIFIYDISCMKPLETIDLWEDHYKRSQANSFSNASNTGTLEGDSANLNRVATNLLANATQKSVNGSNPSVRTRRNSLRSKIRPRMVLSNDDRSILCFTAYSSPKKNKPNSEALYDVVIYDTLNVTPVNYLNSVHKGNVACLAVSHDGKLLATASDKGTIIRVFHTGVDSDYMSSRSLFKEFRRGTRLCNLYQLAFDKSMTMIGCVGDTDTIHLFKLDDASNSLPGDNSSNGHWNEEEYILASNSNPSMGTPKEIPLSKPRIANYFSKKIKSSIPNQNLSRNFAYITVNESNRSCLGFPDEFPNQVYIASDDGTFSIYSIPSKPGECVLTKNNKFT
B2: mEGFP-Atg21 (natural protein)
chain: B1 chain
B3: Atg11 (full length; fluorescent tag of this experiment not told) (natural protein)
chain: MADADEYSTAPTQQEITPLQTTATIINAISGECITTNVDFFVSLDKFKQFIARKWKIPPDQLLILLPYGNKLKPSMFKELLINRSFTLNDFYVYDRRLFSLVSKPTPTNLLTSKDSNPMNSPNSNDLTETLEYLIKNSHISQYQGSDTIMIKPMPSPLEDADVDLSRLNYHSVTSLLTTNLGWLSALEIDVHYFKSLIPDIIAHIKRIFDGLTVCSQYLKLYCFDVESLYNSNVQFLNQLVDNGMTSKWEKCFNDTLSKLTALEGDSLQKFINIESLLENEKSVKILNHSINGKLNKIKREIDENASFRDIITVNIDRLRQMFTPNESKFELEDQMAESFEVLVSEMRTRSRNVLDKEEEEFNSQEFLKSMNVMLEKDKKESVKTLFTISQALYSQIGELIDLKKSLQKHAVAILGNIAFTQMEILGIKRLLLNECNKDLELYKKYEVEFAQVEDLPLIYGLYLIEKYRRLSWFQQILSFISNFNQDLELFKQNELRTRNKWVKNFGSIATVFCEDLLSSSDFKRLNEYHSHTSPPNEDEEDENENSIANYRQDLVKVSQAIDNYMTQIKETDVSEPIIDLLSKTLFETKRFHIIYSNFKNNNNNSSNGNSISPEGSIALKSDDVVKGYKTRIKKLESLLHEFQYSDIGHWPQGVLNTHLKPFRGSATSINKKKFLGASVLLEPANISEVNIDSVSQANNHQIQELESNVDDLLHQLQLLKEENNRKSMQISEMGKKISDLEVEKTAYRETLTNLNQELARLTNEEQSHRTEIFTLNASFKKQLNDIISQDNEKIEKLTGDYDDVSKSRERLQMDLDESNKKHEQEVNLLKADIERLGKQIVTSEKSYAETNSSSMEKGEKFETIPLAEDPGRENQISAYTQTLQDRIFDIISTNIFILENIGLLLTFDNNNNIQIRRVKGLKKGTAQSNILDESTQMLDAHDNSLIKSPVFQKLKDEYELIKSVANGSEKDTQQSIFLGNITQLYDNKLYEVAVIRRFKDIETLAKKLTKENKIKRTLLERFQREKVTLRNFQIGDLALFLPTRENVNSVGSMSSSTSSLSSSFSSVDLSTPPPLDAMSIQSSPSVIHSNVINQASISGRDKNKLMRPWAAFTAFEESTRYFLKDEKGLTKGKEWFVGRIVTLEHFVADSPSNNPFRLPKGSVWFQVTAVVVSYQGV
B4: Atg18-mEGFP (natural protein)
chain: MSDSSPTINFINFNQTGTCISLGTSKGFKIFNCEPFGKFYSEDSGGYAIVEMLFSTSLLALVGIGDQPALSPRRLRIINTKKHSIICEVTFPTSILSVKMNKSRLVVLLQEQIYIYDINTMRLLHTIETNPNPRGLMAMSPSVANSYLVYPSPPKVINSEIKAHATTNNITLSVGGNTETSFKRDQQDAGHSDISDLDQYSSFTKRDDADPTSSNGGNSSIIKNGDVIVFNLETLQPTMVIEAHKGEIAAMAISFDGTLMATASDKGTIIRVFDIETGDKIYQFRRGTYATRIYSISFSEDSQYLAVTGSSKTVHIFKLGHSMSNNKLDSDDSNMEEAAADDSSLDTTSIDALSDEENPTRLAREPYVDASRKTMGRMIRYSSQKLSRRAARTLGQIFPIKVTSLLESSRHFASLKLPVETNSHVMTISSIGSPIDIDTSEYPELFETGNSASTESYHEPVMKMVPIRVVSSDGYLYNFVMDPERGGDCLILSQYSILMD
B5: Atg12–Atg5-Atg16-GFP complex (complex)
chain 1: MSRILESENETESDESSIISTNNGTAMERSRNNQELRSSPHTVQNRLELFSRRLSQLGLASDISVDQQVEDSSSGTYEQEETIKTNAQTSKQKSHKDEKNIQKIQIKFQPIGSIGQLKPSVCKISMSQSFAMVILFLKRRLKMDHVYCYINNSFAPSPQQNIGELWMQFKTNDELIVSYCASVAFG
chain 2: MNDIKQLLWNGELNVLVSIDPSFLMKGSPREIAVLRIRVPRETYLVNYMPLIWNKIKSFLSFDPLTDSEKYFWFEHNKTPIPWNYPVGVLFDCLAGKSATFTTSFENQVKDVLTFLRIHLVMGDSLPPTIIPIASSKTQAEKFWFHQWKQVCFILNGSSKAIMSLSVNEARKFWGSVITRNFQDFIEISNKISSSRPRHIPLIIQTSRTSGTFRISQPTISMTGVNPTLKDIEGDILDVKEGINGNDVMVICQGIEIPWHMLLYDLYSKLRSFDGFLYITLVPIKGGDKASSEL
chain 3: MGNFIITERKKAKEERSNPQTDSMDDLLIRRLTDRNDKEAHLNELFQDNSGAIGGNIVSHDDALLNTLAILQKELKSKEQEIRRLKEVIALKNKNTERLNDELISGTIENNVLQQKLSDLKKEHSQLVARWLKKTEKETEAMNSEIDGTK
modifications: Atg12–Atg5 conjugate | Atg12–Atg5 conjugate
B6: Atg12–Atg5-Atg16-mCherry complex (complex)
chain 1: B5 chain 1
chain 2: B5 chain 2
chain 3: B5 chain 3
modifications: Atg12–Atg5 conjugate | Atg12–Atg5 conjugate

What was measured:
[1] = target: B6; assay: membrane recruitment to GUVs imaged by microscopy
[2] = target: B6; assay: pull-down
[3] = target: the molecule itself
[4] = target: T1, Atg19-3D (S390D, S391D, S396D); assay: pull-down
[5] = target: B6; assay: pull-down; remark: listed apart in the source
Atg2-Atg18-CBP complex = Atg2-Atg18-CBP complex (yeast (S. cerevisiae), UniProt P53855;P43601); assay: pull-down
[6] = target: Atg2-GFP-Atg18-CBP complex (yeast (S. cerevisiae), UniProt P53855;P43601); assay: pull-down
Atg2-mEGFP = Atg2-mEGFP (yeast (S. cerevisiae), UniProt P53855 1-1592); assay: pull-down
Chain of Atg2-mEGFP (P53855 whole entry): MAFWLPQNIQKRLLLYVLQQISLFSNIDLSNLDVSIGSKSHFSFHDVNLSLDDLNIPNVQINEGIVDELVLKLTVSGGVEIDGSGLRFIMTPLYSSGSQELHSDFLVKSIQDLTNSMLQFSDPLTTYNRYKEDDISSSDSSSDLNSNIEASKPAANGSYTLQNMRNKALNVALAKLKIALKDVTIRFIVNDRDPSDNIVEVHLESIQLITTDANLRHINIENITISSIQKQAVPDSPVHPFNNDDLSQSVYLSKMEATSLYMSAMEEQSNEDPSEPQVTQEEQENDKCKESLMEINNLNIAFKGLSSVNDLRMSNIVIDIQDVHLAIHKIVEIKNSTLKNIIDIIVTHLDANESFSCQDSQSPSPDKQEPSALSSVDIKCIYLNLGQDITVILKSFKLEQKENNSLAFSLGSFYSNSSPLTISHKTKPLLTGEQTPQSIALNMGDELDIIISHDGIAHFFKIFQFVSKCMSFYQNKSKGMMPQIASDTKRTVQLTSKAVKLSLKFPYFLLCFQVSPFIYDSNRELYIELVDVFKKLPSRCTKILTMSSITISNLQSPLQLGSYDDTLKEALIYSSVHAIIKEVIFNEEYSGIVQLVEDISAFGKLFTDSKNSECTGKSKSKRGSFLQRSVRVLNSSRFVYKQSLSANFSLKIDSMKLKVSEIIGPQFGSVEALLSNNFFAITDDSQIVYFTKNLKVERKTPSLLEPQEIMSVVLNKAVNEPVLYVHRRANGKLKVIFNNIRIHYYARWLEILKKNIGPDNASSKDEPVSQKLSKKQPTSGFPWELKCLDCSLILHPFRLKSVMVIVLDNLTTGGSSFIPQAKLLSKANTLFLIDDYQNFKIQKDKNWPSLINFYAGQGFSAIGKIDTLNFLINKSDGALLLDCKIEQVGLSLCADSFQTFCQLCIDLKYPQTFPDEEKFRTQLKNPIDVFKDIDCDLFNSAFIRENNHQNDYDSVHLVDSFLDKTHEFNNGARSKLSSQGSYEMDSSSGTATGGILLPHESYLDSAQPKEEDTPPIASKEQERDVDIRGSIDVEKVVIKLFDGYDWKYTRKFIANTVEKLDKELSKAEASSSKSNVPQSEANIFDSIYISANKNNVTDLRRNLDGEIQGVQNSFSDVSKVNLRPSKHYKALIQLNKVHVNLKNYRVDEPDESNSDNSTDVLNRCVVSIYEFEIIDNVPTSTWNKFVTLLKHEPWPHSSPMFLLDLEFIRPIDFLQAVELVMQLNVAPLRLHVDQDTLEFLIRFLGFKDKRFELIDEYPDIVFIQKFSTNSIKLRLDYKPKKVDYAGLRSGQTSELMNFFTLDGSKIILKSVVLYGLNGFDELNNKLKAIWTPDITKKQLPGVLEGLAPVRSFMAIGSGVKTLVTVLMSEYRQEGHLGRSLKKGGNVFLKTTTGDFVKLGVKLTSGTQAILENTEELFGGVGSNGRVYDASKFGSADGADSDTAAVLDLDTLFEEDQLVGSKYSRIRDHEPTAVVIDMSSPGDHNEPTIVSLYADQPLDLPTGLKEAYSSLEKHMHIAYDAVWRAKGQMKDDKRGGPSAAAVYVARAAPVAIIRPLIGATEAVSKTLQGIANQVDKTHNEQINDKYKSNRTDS

Chain of Atg2-Atg18-CBP complex (P53855 whole entry, chain 1 of 2, one chain of several): as the sequence (P53855 whole entry) above
Chain of Atg2-GFP-Atg18-CBP complex (P53855 whole entry, one chain of several): as the sequence (P53855 whole entry) above

Binder: B1
binding result [1]: binds

Binder: B2
binding result [2]: binds

Binder: B3
stoichiometry N [3]: 2

binding result [4]: binds
Binder: MEEQREILEQLKKTLQMLTVEPSKNNQIANEEKEKKENENS (domain or fragment) [GST-prApe1 (1-41)]

Binder: B4
binding result [5]: binds

Binder: B5
binding result (Atg2-Atg18-CBP complex): binds

Binder: B6
binding result [6]: binds
binding result (Atg2-mEGFP): binds
